Test [1] deals with T1, XCR1-SMALP-GFP.
T1 sequence (P46094 whole entry, species assumed, looked up): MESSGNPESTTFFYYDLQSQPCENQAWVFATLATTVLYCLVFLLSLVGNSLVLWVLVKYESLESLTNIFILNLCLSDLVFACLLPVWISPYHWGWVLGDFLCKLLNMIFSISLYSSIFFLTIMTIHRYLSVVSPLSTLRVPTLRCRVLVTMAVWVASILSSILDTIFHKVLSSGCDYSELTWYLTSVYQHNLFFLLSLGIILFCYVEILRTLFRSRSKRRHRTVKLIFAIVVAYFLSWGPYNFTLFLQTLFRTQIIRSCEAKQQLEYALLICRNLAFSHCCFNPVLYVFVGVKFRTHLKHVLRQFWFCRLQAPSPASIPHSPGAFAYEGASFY
The test can be described thus: flow cytometry, yeast-displayed Fab, 25 nM XCR1-SMALP-GFP, after background subtraction.

Test [2] deals with T2, XCR1-SMALP.
T2 sequence (P46094 whole entry, species assumed, looked up): T1 sequence (P46094 whole entry, species assumed, looked up)
In words: flow cytometry, yeast-displayed Fab, 50 nM XCR1 SMALP. (A flow cytometer gives signals particle by particle.)

Numbering of substitutions follows the chain as printed.

B1: LIBC680562-1 (yeast-displayed Fab) (Fab, V domains shown)
VH: QVQLQESGPGLVKPSQTLSLTCTVSGGSIRRGGDYWAWIRQHPGKGLEWIGHIYQTGSTNYNPRFKGRATISVNTYKNQFSLKLSSVTAADTAVYYCARNYDTLTGYSYYYYGMDVWGQGTTVTVSS
VL: DIQMTQSPSSLSASVGDRVTITCRASQSISSYLNWYQQKPGKAPKLLIYSARRLSSGVPSRFSGSGSGTDFTLTISSLQPEDFATYYCQQYAKSPITFGGGTKVEIKR
In the case of B1, in test [1], the Relative binding fold change compared to LIBC528116 (Fab) is 0.64 fold.

B2: LIBC680800-1 (yeast-displayed Fab) (Fab, V domains shown)
VH: B1 VH
VL: B1 VL with R53A, A92R, S94F, I96L
For B2, the Relative binding fold change compared to LIBC528116 (Fab) in test [1] is 0.47 fold.

B3: LIBC680812-1 (yeast-displayed Fab) (Fab, V domains shown)
VH: B1 VH with A37G, I53V, N60K, R64S, G67D
VL: B1 VL with A92R, K93S, S94Y
Consider B3, for which the Relative binding fold change compared to LIBC528116 (Fab) in test [1] was 0.59 fold.

B4: LIBC680574-1 (yeast-displayed Fab) (Fab, V domains shown)
VH: B1 VH with I53V, Q55Y, N60K, R64S, G67D
VL: B1 VL with S50G, S55G, A92S, K93S, S94L, I96V
As to B4, in test [1], the Relative binding fold change compared to LIBC528116 (Fab) worked out at 0.56 fold.

B5: LIBC681593-1 (yeast-displayed Fab) (Fab, V domains shown)
VH: B1 VH
VL: B1 VL with S50N, S55G, A92R, K93S, I96V
For B5, the Relative binding fold change compared to LIBC528116 (Fab) in test [1] was found to be 0.72 fold.

B6: LIBC681594-1 (yeast-displayed Fab) (Fab, V domains shown)
VH: B1 VH
VL: B1 VL with S50K, R53K, Y91F, A92G, K93S, S94M, I96L
Consider B6, for which the Relative binding fold change compared to LIBC528116 (Fab) in test [1] came to 1.04 fold.

B7: LIBC673952-1 (Fab on yeast) (Fab, V domains shown)
VH: QVQLQESGPGLVKPSQTLSLTCTVSGGSIRRGGDYWSWIRQHPGKGLEWIGHVYYTGQTTYNPSFRGRVTISVNTYKNQFSLKLSSVTAADTAVYYCARDYDILTGYSYYYYGLDVWGQGTTVTVSS
VL: DIVMTQSPLSLPVTPGEPASISCRSSQSLLHRSGYNYLDWYLQKPGQSPQLLIYQGSNRASGVPDRFSGSGSGTDFTLKISRVEAEDVGVYYCRQARALPRTFGQGTKVEIKR
Regarding B7, the relative binding fold change compared to LIBC523797-1(Fab) in test [2] worked out at 0.59 fold.

B8: LIBC674200-1 (Fab on yeast) (Fab, V domains shown)
VH: QVQLQESGPGLVKPSQTLSLTCTVSGGSIRRGGDYWSWIRQHPGKGLEWIGHVYYTGQTAYNPNFRNRVRISVNTYKNQFSLKLSSVTAADTAVYYCARGYDVSGYSYYYYGMDVWGQGTTVTVSS
VL: B7 VL with Q55L, D65G, R94M, A96S, R97L, A98Q, L99T
On to B8, for which, in test [2], the relative binding fold change compared to LIBC523797-1(Fab) came out at 0.79 fold.

B9: LIBC674229-1 (Fab on yeast) (Fab, V domains shown)
VH: B8 VH with V53I, Y55Q, A60K, N64S, R66K, N67G
VL: B7 VL with R94M, A96S, R97L, A98Q, L99T
On to B9, for which, in test [2], the relative binding fold change compared to LIBC523797-1(Fab) turned out to be 0.8 fold.

B10: LIBC674090-1 (Fab on yeast) (Fab, V domains shown)
VH: B8 VH with V53I, T56A, Q58S, N67G, V103T, M113L
VL: B7 VL with R94M, A96S, R97L, A98Q, L99T
Consider B10, for which the relative binding fold change compared to LIBC523797-1(Fab) in test [2] came to 0.74 fold.

(Values after patent US20250277029A1, “CANNABINOID TYPE 1 RECEPTOR BINDING PROTEINS AND USES THEREOF” (AMGEN INC., priority 2022, published 2025).)
